Results published in patent publication US20140105889A1 (published 2014).

T1: human FcγRIIb (human, UniProt P31994 43-217)
T1 construct: also called FcγIIB
T1 sequence: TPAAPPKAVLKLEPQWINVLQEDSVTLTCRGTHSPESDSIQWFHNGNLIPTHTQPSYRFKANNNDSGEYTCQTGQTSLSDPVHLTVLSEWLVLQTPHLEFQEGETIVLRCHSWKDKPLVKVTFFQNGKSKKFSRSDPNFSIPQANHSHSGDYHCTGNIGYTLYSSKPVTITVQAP

T2: human FcγRIIa type H (human, UniProt P12318 36-217)
T2 construct: Whole entry named for FcγRIIa allotype H131 (AAH20823.1); also called FcγRIIaH; FcγRIIa(H)
T2 sequence: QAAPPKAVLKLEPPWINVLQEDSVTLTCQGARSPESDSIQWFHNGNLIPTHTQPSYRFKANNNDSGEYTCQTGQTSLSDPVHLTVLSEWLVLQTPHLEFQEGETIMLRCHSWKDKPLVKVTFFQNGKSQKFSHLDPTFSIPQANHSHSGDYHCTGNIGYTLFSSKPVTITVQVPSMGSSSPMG

T3: human FcγRIIa type R (human, UniProt P12318 36-217)
T3 construct: also called FcγRIIaR; FcγRIIa(R)
T3 chain: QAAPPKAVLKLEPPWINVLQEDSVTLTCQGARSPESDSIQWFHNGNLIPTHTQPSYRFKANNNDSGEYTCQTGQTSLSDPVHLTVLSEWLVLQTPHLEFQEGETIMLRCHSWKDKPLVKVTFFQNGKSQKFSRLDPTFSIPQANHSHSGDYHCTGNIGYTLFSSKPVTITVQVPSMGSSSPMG

T4: human FcγRIIa type H (human, UniProt P12318 36-217)
T4 construct: also called FcgRIIaH; FcγRIIa(H)
T4 sequence: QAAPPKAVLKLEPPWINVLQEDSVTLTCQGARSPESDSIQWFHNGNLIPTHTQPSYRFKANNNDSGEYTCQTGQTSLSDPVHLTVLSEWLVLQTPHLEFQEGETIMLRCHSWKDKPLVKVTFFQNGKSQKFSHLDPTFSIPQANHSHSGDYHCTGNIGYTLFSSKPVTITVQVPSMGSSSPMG

T5: human FcγRIIb (human, UniProt P31994 43-217, limits assumed)
T5 construct: also called FcgRIIb; FcγIIB
T5 sequence: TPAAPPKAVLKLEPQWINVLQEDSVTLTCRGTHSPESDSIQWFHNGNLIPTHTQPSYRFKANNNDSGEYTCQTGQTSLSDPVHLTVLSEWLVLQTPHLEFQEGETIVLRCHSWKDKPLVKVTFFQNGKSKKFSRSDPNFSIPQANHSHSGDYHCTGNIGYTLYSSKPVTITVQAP

B1: IL6R-BP112/IL6R-L (antibody, human IgG1)
heavy: QVQLQESGPGLVKPSETLSLTCAVSGHSISHDHAWSWVRQPPGEGLEWIGFISYSGITNYNPSLQGRVTISRDNSKNTLYLQMNSLRAEDTAVYYCARSLARTTAMDYWGEGTLVTVSSASTKGPSVFPLAPSSKSTSGGTAALGCLVKDYFPEPVTVSWNSGALTSGVHTFPAVLQSSGLYSLSSVVTVPSSSLGTQTYICNVNHKPSNTKVDKKVEPKSCDKTHTCPPCPAPELLGGDSVFLFPPKPKDTLMISRTPEVTCVVVDVSHEDGEVKFNWYVDGVEVHNAKTKPREEQYNSTYRVVSVLTVLHQDWLNGKEYKCKVSNKALPAPIEKTISKAKGQPREPQVYTLPPSRDELTKNQVSLTCLVKGFYPSDIAVEWESNGQPENNYKTTPPVLDSDGSFFLYSKLTVDKSRWQQGNVFSCSVMHEALHNHYTQESLSLSP
light: DIQMTQSPSSLSASVGDRVTITCRASQDISSYLNWYQQKPGKAPKLLIYYTSRLHSGVPSRFSGSGSGTDFTFTISSLQPEDIATYYCQQGNTLPYTFGQGTKVEIK
notes: copies: 2 + 2
B2: IL6R-BP117/IL6R-L (antibody, human IgG1)
heavy: QVQLQESGPGLVKPSETLSLTCAVSGHSISHDHAWSWVRQPPGEGLEWIGFISYSGITNYNPSLQGRVTISRDNSKNTLYLQMNSLRAEDTAVYYCARSLARTTAMDYWGEGTLVTVSSASTKGPSVFPLAPSSKSTSGGTAALGCLVKDYFPEPVTVSWNSGALTSGVHTFPAVLQSSGLYSLSSVVTVPSSSLGTQTYICNVNHKPSNTKVDKKVEPKSCDKTHTCPPCPAPELLGGDSVFLFPPKPKDTLMISRTPEVTCVVVDVSHEDPEVKFNWYVDGVEVHNAKTKPREEQYNSTYRVVSVLTVLHQDWLNGKEYKCKVSNDALPAPIEKTISKAKGQPREPQVYTLPPSRDELTKNQVSLTCLVKGFYPSDIAVEWESNGQPENNYKTTPPVLDSDGSFFLYSKLTVDKSRWQQGNVFSCSVMHEALHNHYTQESLSLSP
light: DIQMTQSPSSLSASVGDRVTITCRASQDISSYLNWYQQKPGKAPKLLIYYTSRLHSGVPSRFSGSGSGTDFTFTISSLQPEDIATYYCQQGNTLPYTFGQGTKVEIK
notes: copies: 2 + 2
B3: IL6R-BP120/IL6R-L (antibody, human IgG1)
heavy: QVQLQESGPGLVKPSETLSLTCAVSGHSISHDHAWSWVRQPPGEGLEWIGFISYSGITNYNPSLQGRVTISRDNSKNTLYLQMNSLRAEDTAVYYCARSLARTTAMDYWGEGTLVTVSSASTKGPSVFPLAPSSKSTSGGTAALGCLVKDYFPEPVTVSWNSGALTSGVHTFPAVLQSSGLYSLSSVVTVPSSSLGTQTYICNVNHKPSNTKVDKKVEPKSCDKTHTCPPCPAPELLGGDSVFLFPPKPKDTLMISRTPEVTCVVVDVSHEDPEVKFNWYVDGVEVHNAKTKPREEQYNSTYRVVSVLTVLHQDWLNGKEYKCKVSNEALPAPIEKTISKAKGQPREPQVYTLPPSRDELTKNQVSLTCLVKGFYPSDIAVEWESNGQPENNYKTTPPVLDSDGSFFLYSKLTVDKSRWQQGNVFSCSVMHEALHNHYTQESLSLSP
light: DIQMTQSPSSLSASVGDRVTITCRASQDISSYLNWYQQKPGKAPKLLIYYTSRLHSGVPSRFSGSGSGTDFTFTISSLQPEDIATYYCQQGNTLPYTFGQGTKVEIK
notes: copies: 2 + 2
B4: IL6R-BP202/IL6R-L (antibody, human IgG1)
heavy: QVQLQESGPGLVKPSETLSLTCAVSGHSISHDHAWSWVRQPPGEGLEWIGFISYSGITNYNPSLQGRVTISRDNSKNTLYLQMNSLRAEDTAVYYCARSLARTTAMDYWGEGTLVTVSSASTKGPSVFPLAPSSKSTSGGTAALGCLVKDYFPEPVTVSWNSGALTSGVHTFPAVLQSSGLYSLSSVVTVPSSSLGTQTYICNVNHKPSNTKVDKKVEPKSCDKTHTCPPCPAPELLGDDSVFLFPPKPKDTLMISRTPEVTCVVVDVSHEDGEVKFNWYVDGVEVHNAKTKPREEQYNSTYRVVSVLTVLHQDWLNGKEYKCKVSNAALPRPIEKTISKAKGQPREPQVYTLPPSRDELTKNQVSLTCLVKGFYPSDIAVEWESNGQPENNYKTTPPVLDSDGSFFLYSKLTVDKSRWQQGNVFSCSVMHEALHNHYTQESLSLSP
light: DIQMTQSPSSLSASVGDRVTITCRASQDISSYLNWYQQKPGKAPKLLIYYTSRLHSGVPSRFSGSGSGTDFTFTISSLQPEDIATYYCQQGNTLPYTFGQGTKVEIK
notes: The common L chain is IL6R-L; copies: 2 + 2

Legend:
human FcγRIIb [1] = target: T1, human FcγRIIb; test: SPR (Biacore), FcγR over captured antibody; amount bound relative to IL6R-BF648/IL6R-L x100
human FcγRIIa type H [2] = target: T2, human FcγRIIa type H; test: as above
human FcγRIIa type R = target: T3, human FcγRIIa type R; test: as above
human FcγRIa [3] = target: T6, human FcγRIa (human, UniProt P12314 16-292, limits assumed); test: as above
T6 construct: also called CD64
T6 sequence (P12314 16-292 limits assumed): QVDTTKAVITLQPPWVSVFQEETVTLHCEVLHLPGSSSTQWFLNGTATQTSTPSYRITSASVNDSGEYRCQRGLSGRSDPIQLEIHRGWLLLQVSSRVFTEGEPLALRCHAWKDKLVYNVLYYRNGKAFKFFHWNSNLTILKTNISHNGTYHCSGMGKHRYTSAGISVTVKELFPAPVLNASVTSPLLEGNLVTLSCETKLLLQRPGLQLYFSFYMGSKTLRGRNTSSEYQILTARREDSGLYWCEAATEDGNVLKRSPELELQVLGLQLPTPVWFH

human FcγRIIa type H [4] = target: T4, human FcγRIIa type H; test: SPR (Biacore); binding amount divided by that of control IL6R-BF648/IL6R-L, x100
Procedure: (§1) According to the following method, relative binding activities were calculated for the results of analyzing interactions with the respective FcγRs.

human FcγRIIb [5] = target: T5, human FcγRIIb; test: as above
Procedure: as §1

human FcγRIa [6] = target: T7, human FcγRIa (human, UniProt P12314 16-292, limits assumed); test: as above
T7 construct: also called FcgRIa; CD64
T7 sequence (P12314 16-292 limits assumed): as above
Procedure: as §1

Binder | relative binding (human FcγRIIb [1]) | relative binding (human FcγRIIa type H [2]) | relative binding (human FcγRIIa type R) | relative binding (human FcγRIa [3]) | relative binding activity (human FcγRIIa type H [4]) | relative binding activity (human FcγRIIb [5]) | relative binding activity (human FcγRIa [6])
B1 | 157 relative value (IL6R-BF648/IL6R-L = 100) | 113 relative value (IL6R-BF648/IL6R-L = 100) | 340 relative value (IL6R-BF648/IL6R-L = 100) | 119 relative value (IL6R-BF648/IL6R-L = 100) |  |  | 
B2 | 118 relative value (IL6R-BF648/IL6R-L = 100) | 96 relative value (IL6R-BF648/IL6R-L = 100) | 166 relative value (IL6R-BF648/IL6R-L = 100) | 124 relative value (IL6R-BF648/IL6R-L = 100) |  |  | 
B3 | 114 relative value (IL6R-BF648/IL6R-L = 100) |  | 175 relative value (IL6R-BF648/IL6R-L = 100) | 125 relative value (IL6R-BF648/IL6R-L = 100) |  |  | 
B4 |  |  |  |  | 285 % of IL6R-BF648/IL6R-L | 185 % of IL6R-BF648/IL6R-L | 43 % of IL6R-BF648/IL6R-L
